Data taken from patent US12571800B2, “Means and methods for treating angiogenesis-related diseases” (Heidelberg Biotech GmbH, priority 2011, dated 2026).
Like-named read-outs stand apart in the source and are kept apart here.

Experiments:
[1] = in vivo, cited from earlier work
Lewis Lung Cancer tumors = assay: Sequential in-vivo passaging of LLC tumors under Fc-endostatin; parameters: species or system C57/B16 mice
Description: Dimerization of the NC-1 endostatin domains were achieved using IgG-Fc. […] Sequential in-vivo tumor passaging was performed to achieve prolonged and continuous exposure to anti-angiogenic therapy to enrich for the resistant tumor cell population.
Murine Lewis Lung Carcinoma (LLC) tumors were implanted s.c. into C57/B16 mice. Tumors were treated with a murine oligomeric-NC1 fragment, mFc-endostatin, at doses indicated. LLC tumors were exposed in-vivo for a prolonged period to mFc-endostatin by sequential transplantation of tumors (up to four passages, p4) once they evade therapy and reach a size of approximately 1000-2000 mm^3. Control tumors were also sequentially transplanted into new mice without mFc-endostatin treatment. Tumor volume was measured by caliper measurement (FIG. 8). After four passages, both mFc-endostatin resistant as well as control tumors were excised, total RNA was isolated and after QC hybridized on genome-wide microarrays for transcriptional analysis. Microarray data were analyzed using SUMO software package. Quantitative real-time RT-PCR was performed using Taqman technology to confirm the expression of candidate genes identified by microarray analysis.

[2] = in vivo; cited from earlier work
ASPC-1 xenograft = assay: Immunofluorescence distribution in ASPC-1 xenograft mice; details: mouse, in vivo
Source text: Immunohistochemistry was used to verify the distribution of Fc-endostatin in ASPC-1 xenograft mice after treatments. (A) The exogenous endostatin was detected by Alexa 488-labeled antibody (green) and vessel marker, CD31 was used and detected by Alexa 594-labeled antibody (red) in tumor, heart and kidney. (B) α-SMA, pericyte marker (red) was used to confirm the endostatin binding to tumor vessels. (C) Exogenous endostatin (green) distribution is similar to fibronectin (red) in tumor. […] (D) Endogenous collagen 18 (green) and fibronectin (red) were detected by polyclonal antibodies against endostatin and fibronectin in non-treated animal tumor. (E) Staining of Fc-endostatin and integrin α5β1. (F) Staining of vW and integrin α5β1. (G) E14.5 mouse brain embryonic sections were used to verify the distribution of fibronectin, VEGF and Fc-endostatin (Bar, 100 μm).
1.6 Immunohistochemistry. Tumors sections were rinsed by cold PBS and fixed with 4% paraformaldehyde for 10 min with before staining. Human Fc-endostatin was detected by Alexa 488 anti-human IgG. Antibodies to collagen 18 (R&D), fibronectin (R&D), integrin α5 (R&D) CD31 (BD Pharmingen, San Jose, CA) and von Willebrand Factor (Dako, Carpinteria, CA), α-SMA (Dako, Carpinteria, CA) were used for staining. The primary antibodies were detected by Alexa 488 or 594-labeled secondary antibodies (Molecular Probes, Eugene, OR). The sections were imaged by confocal-microscopy (model DM IRE2: Leica).
Immunofluorescence (IF) analysis was used to verify the systemic distribution of hFc-endostatin in an ASPC-1 xenograft animal model. […] In addition to CD31 (endothelial cell) staining, the pericyte marker, α-SMA was used to confirm the interaction of endostatin with blood vessels (FIG. 2B). To examine binding of endostatin to fibronectin, hFc-endostatin treated tumor sections of xenograft models were prepared. […] Co-localization of endogenous collagen 18 and endogenous fibronectin has also been detected (FIG. 2D). […] In addition, ex vivo E14.5 mouse brain embryonic sections were used to confirm this phenomenon. […]

HUVECs = assay: Immunofluorescence, endothelial cell surface binding; format: cell-based, human
Description: HUVECs were incubated with Fc-endostatin and detected with Alexa 488 IgG or human NC-1 (hNC-1) trimer and detected by anti-His tag monoclonal antibody.
1.5 Immunocytochemistry. HUVECs were plated and grown on cover slips. […] The slips were incubated in the blocking buffer (2% BSA PBS) for 30 min. For hFc-endostatin or hFc groups, the slides were incubated with Alexa 488 antihuman IgG for imaging. For hNC-1 or IgG groups, the slides were incubated with mouse anti-His-tag monoclonal antibody, then probed by Alexa 488 anti-mouse IgG. Anti-fibronectin antibody (R&D) was used for secondary staining for all slides and probed by Alexa 594 anti-goat IgG and imaged by confocal-microscopy. DAPI counterstaining of nuclei is shown in blue.
2.3 Binding of oligomeric hFc-endostatin and hNC-1 to HUVECs. Immunoflourescence technique was employed to detect endothelial cell surface binding of oligomeric endostatin and NC-1.

B1: Fc-endostatin: human endostatin with the Fc domain at its N-terminus, expressed in NS/0 cells (protein)
chain: HSHRDFQPVLHLVALNSPLSGGMRGIRGADFQCFQQARAVGLAGTFRAFLSSRLQDLYSIVRRADRAAVPIVNLKDELLFPSWEALFSGSEGPLKPGARIFSFDGKDVLRHPTWPQKSVWHGSDPNGRRLTESYCETWRTEAPSATGQASSLLGGRLLGQSAASCHHAYIVLCIENSFMTASK
modifications: left off: a dimerising Fc or GST
notes: human endostatin with the Fc domain at its N-terminus, expressed in NS/0 cells
half-life in circulation [1]: longer half-life than endostatin
half-life in circulation ([1]; listed as endostatin fused to the Fc domain of an IgG antibody): longer than a week
tumor growth, passage 4 (P4) (Lewis Lung Cancer tumors; continuous exposure over four passages): growing even faster than non-treated control p4 tumors
tumor growth, first passage (p1) (Lewis Lung Cancer tumors; p1): strong initial inhibition of tumor growth
smaller dose required for the same tumor reduction vs endostatin alone [2]: 50-100 fold
co-localization with fibronectin in tumor sections (ASPC-1 xenograft): co-localization with endogenous fibronection
co-localization with integrin α5β1 (ASPC-1 xenograft): co-localized with integrin α5β1
systemic distribution (antibody to Fc) (ASPC-1 xenograft): found not only in tumor but also in heart and kidney endothelial cells
binding to HUVECs (HUVECs; cells cultured only for 24 hours): poor binding
binding to HUVECs (HUVECs; incubation time prolonged to 72 hours): significant binding
